In patent US20240270846A1 (published 2024):
Positions count from the first letter of the chain named. In names and notes the source's numbering stands.

B1: CE115HA000 N76S one-arm antibody (antibody, human IgG1, kappa, L234A L235A, N297A, name in Kabat numbering)
heavy: QVQLVESGGGVVQPGRSLRLSCAASGFTFSNAWMHWVRQAPGKGLEWVAQIKAKSNNYATYYAESVKGRFTISRDDSKSSLYLQMNSLKTEDTAVYYCRYVHYGAYYGVDAWGQGTTVTVSSASTKGPSVFPLAPSSKSTSGGTAALGCLVKDYFPEPVTVSWNSGALTSGVHTFPAVLQSSGLYSLSSVVTVPSSSLGTQTYICNVNHKPSNTKVDKKVEPKSCDKTHTCPPCPAPEAAGGPSVFLFPPKPKDTLMISRTPEVTCVVVDVSHEDPEVKFNWYVDGVEVHNAKTKPREEQYASTYRVVSVLTVLHQDWLNGKEYKCKVSNKALPAPIEKTISKAKGQPREPQVYTLPPSRCELTKNQVSLSCAVKGFYPSDIAVEWESNGQPENNYKTTPPVLDSDGSFFLVSKLTVDKSRWQQGNVFSCSVMHEALHNHYTQKSLSLSPDYKDDDDK
chain: EPKSSDKTHTCPPCPAPELLGGPSVFLFPPKPKDTLMISRTPEVTCVVVDVSHEDPEVKFNWYVDGVEVHNAKTKPREEQYNSTYRVVSVLTVLHQDWLNGKEYKCKVSNKALPAPIEKTISKAKGQPREPQVCTLPPSRDELTKNQVSLWCLVKGFYPSDIAVEWESNGQPENNYKTTPPVLDSDGSFFLYSKLTVDKSRWQQGNVFSCSVMHEALHNRYTQKSLSLSP
light: DIVMTQSPLSLPVTPGEPASISCRSSQSLVHSNRNTYLHWYQQKPGQAPRLLIYKVSNRFSGVPDRFSGSGSGTDFTLKISRVEAEDVGVYYCGQGTQVPYTFGQGTKLEIKRTVAAPSVFIFPPSDEQLKSGTASVVCLLNNFYPREAKVQWKVDNALQSGNSQESVTEQDSKDSTYSLSSTLTLSKADYEKHKVYACEVTHQGLSSPVTKSFNRGEC
notes: one-arm antibody
B2: CE115HA000 N82aD one-arm antibody (antibody, human IgG1, kappa, L234A L235A, N297A, name in Kabat numbering)
heavy: B1 heavy with S79N, N86D
chain: B1 chain
light: B1 light
notes: one-arm antibody
B3: CE115HA000 Q105E one-arm antibody (antibody, human IgG1, kappa, L234A L235A, N297A, name in Kabat numbering)
heavy: B1 heavy with S79N, Q114E
chain: B1 chain
light: B1 light
notes: one-arm antibody
B4: CE115HA000 S62D one-arm antibody (antibody, human IgG1, kappa, L234A L235A, N297A, name in Kabat numbering)
heavy: B1 heavy with S65D, S79N
chain: B1 chain
light: B1 light
notes: one-arm antibody
B5: CE115HA000 S62E one-arm antibody (antibody, human IgG1, kappa, L234A L235A, N297A, name in Kabat numbering)
heavy: B1 heavy with S65E, S79N
chain: B1 chain
light: B1 light
notes: one-arm antibody
B6: CE115HA000 S62K one-arm antibody (antibody, human IgG1, kappa, L234A L235A, N297A, name in Kabat numbering)
heavy: B1 heavy with S65K, S79N
chain: B1 chain
light: B1 light
notes: one-arm antibody
B7: CE115HA000 S62P one-arm antibody (antibody, human IgG1, kappa, L234A L235A, N297A, name in Kabat numbering)
heavy: B1 heavy with S65P, S79N
chain: B1 chain
light: B1 light
notes: one-arm antibody
B8: CE115HA000 S74A one-arm antibody (antibody, human IgG1, kappa, L234A L235A, N297A, name in Kabat numbering)
heavy: B1 heavy with S77A, S79N
chain: B1 chain
light: B1 light
notes: one-arm antibody
B9: CE115HA000 S74P one-arm antibody (antibody, human IgG1, kappa, L234A L235A, N297A, name in Kabat numbering)
heavy: B1 heavy with S77P, S79N
chain: B1 chain
light: B1 light
notes: one-arm antibody
B10: CE115HA000 S77T one-arm antibody (antibody, human IgG1, kappa, L234A L235A, N297A, name in Kabat numbering)
heavy: B1 heavy with S79N, S80T
chain: B1 chain
light: B1 light
notes: one-arm antibody
B11: CE115HA000 V95A one-arm antibody (antibody, human IgG1, kappa, L234A L235A, N297A, name in Kabat numbering)
heavy: B1 heavy with S79N, V101A
chain: B1 chain
light: B1 light
notes: one-arm antibody
B12: CE115HA000 V95D one-arm antibody (antibody, human IgG1, kappa, L234A L235A, N297A, name in Kabat numbering)
heavy: B1 heavy with S79N, V101D
chain: B1 chain
light: B1 light
notes: one-arm antibody
B13: CE115HA000 V95E one-arm antibody (antibody, human IgG1, kappa, L234A L235A, N297A, name in Kabat numbering)
heavy: B1 heavy with S79N, V101E
chain: B1 chain
light: B1 light
notes: one-arm antibody
B14: CE115HA000 V95G one-arm antibody (antibody, human IgG1, kappa, L234A L235A, N297A, name in Kabat numbering)
heavy: B1 heavy with S79N, V101G
chain: B1 chain
light: B1 light
notes: one-arm antibody
B15: CE115HA000 V95K one-arm antibody (antibody, human IgG1, kappa, L234A L235A, N297A, name in Kabat numbering)
heavy: B1 heavy with S79N, V101K
chain: B1 chain
light: B1 light
notes: one-arm antibody
B16: CE115HA000 V95S one-arm antibody (antibody, human IgG1, kappa, L234A L235A, N297A, name in Kabat numbering)
heavy: B1 heavy with S79N, V101S
chain: B1 chain
light: B1 light
notes: one-arm antibody
B17: CE115HA000 V100cD one-arm antibody (antibody, human IgG1, kappa, L234A L235A, N297A, name in Kabat numbering)
heavy: B1 heavy with S79N, V109D
chain: B1 chain
light: B1 light
notes: one-arm antibody
B18: CE115HA000 V100cE one-arm antibody (antibody, human IgG1, kappa, L234A L235A, N297A, name in Kabat numbering)
heavy: B1 heavy with S79N, V109E
chain: B1 chain
light: B1 light
notes: one-arm antibody
B19: CE115HA000 V100cP one-arm antibody (antibody, human IgG1, kappa, L234A L235A, N297A, name in Kabat numbering)
heavy: B1 heavy with S79N, V109P
chain: B1 chain
light: B1 light
notes: one-arm antibody
B20: CE115HA000 Y97D one-arm antibody (antibody, human IgG1, kappa, L234A L235A, N297A, name in Kabat numbering)
heavy: B1 heavy with S79N, Y103D
chain: B1 chain
light: B1 light
notes: one-arm antibody
B21: CE115HA000 Y97P one-arm antibody (antibody, human IgG1, kappa, L234A L235A, N297A, name in Kabat numbering)
heavy: B1 heavy with S79N, Y103P
chain: B1 chain
light: B1 light
notes: one-arm antibody
B22: CE115HA000 Y97R one-arm antibody (antibody, human IgG1, kappa, L234A L235A, N297A, name in Kabat numbering)
heavy: B1 heavy with S79N, Y103R
chain: B1 chain
light: B1 light
notes: one-arm antibody

biological target: T1, CD3 epsilon homodimer protein (UniProt P07766 23-126); test: SPR (Biacore T200), CD3 epsilon homodimer on CM4 chip, one-arm antibody as analyte; ratio to unaltered CE115HA000;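 further: surface plasmon resonance run at 25 °C with HBS-EP+ as running buffer, CD3 epsilon homodimer attached by amine coupling, antibody passed over as analyte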
T1 construct: Construct of the homodimer protein is not described; also called CD3 (CD3 epsilon)
T1 sequence (P07766 23-126): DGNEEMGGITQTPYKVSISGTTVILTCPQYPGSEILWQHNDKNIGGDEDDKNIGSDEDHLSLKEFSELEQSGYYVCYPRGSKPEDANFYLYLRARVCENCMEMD

| Binder | KD ratio (KD value of CE115HA000/KD value of the altered form) |
| --- | --- |
| B1 | 0.84 |
| B2 | 0.56 |
| B3 | 0.89 |
| B4 | 0.87 |
| B5 | 0.82 |
| B6 | 0.99 |
| B7 | 0.77 |
| B8 | 0.77 |
| B9 | 0.7 |
| B10 | 0.83 |
| B11 | 3.15 |
| B12 | 108 |
| B13 | 50.5 |
| B14 | 78300 |
| B15 | 1.15 |
| B16 | 4.61 |
| B17 | 1.64 |
| B18 | 1.31 |
| B19 | 0.97 |
| B20 | 64.7 |
| B21 | 12400 |
| B22 | 23200 |
